Here are results for one molecule from patent US20210130420A1, “RECOMBINANT BINDING PROTEINS TARGETING HER2 AND SERUM ALBUMIN, AND THEIR USES” (Molecular Partners AG, priority 2016, published 2021).

Where “and” joins values, the source holds several entries; their conditions need not be identical. Equal entries are not always repeated.

Series [1] in a line: Pharmacokinetic analysis in cynomolgus monkey. The class given is in vivo. How it is done:
The measurements shown in this example are the result of a half-life engineering effort as described in Example 11. Protein #21-His, Protein #23-His, and Protein #24-His were expressed and purified as described in Example 1. The pharmacokinetic properties of the proteins were assessed in cynomolgus monkey. Proteins were administered via intravenous infusion for 30 min at a target dose level of between 1 mg/kg to cynomolgus monkeys. Blood samples were collected pre-dose and again at selected time points, for example 5 min, 10 min, 0.5 hours, 1 hour, 2 hours, 4 hours, 8 hours, 12 hours, 24 hours, 48 hours, 72 hours, 96 hours, 120 hours, 144 hours, 168 hours, 192 hours, 216 hours, and 240 hours post-end of infusion (i.e. post-injection). The blood samples were allowed to stand at room temperature and were centrifuged to generate serum, followed by storage at −80° C. pending analyses. Pharmacokinetic parameters were determined using procedures well known to the person skilled in the art. Serum concentrations of proteins were determined by sandwich ELISA using a rabbit monoclonal anti-designed ankyrin repeat domain antibody as capture reagent and murine monoclonal anti-designed ankyrin repeat domain antibody as detection reagent, and using a standard curve. Pharmacokinetic parameters were determined using standard software such as Phoenix WinNonLin (Certara, Princeton, USA) or Graph Pad Prism (GraphPad Software, La Jolla, USA) and standard analyses such as non-compartmental analyses. […] Target mediated clearance is well-known to the person skilled in the art and is known from e.g. antibodies targeting HER2.
Similarly, Protein #21-His was expressed and purified as described in Example 1. The pharmacokinetic properties of the proteins were assessed in cynomolgus monkey as described above at 1 mg/kg, 5 mg/kg and 10 mg/kg.
Similar results are observed when testing Protein #21 (expressed and purified as described in Example 1). The pharmacokinetic properties of the proteins are assessed in cynomolgus monkey as described above at 1 mg/kg, 10 mg/kg and 100 mg/kg. Pharmacokinetic parameters are evaluated as described above.
For the studies in this example Protein #21-His, Protein #24-His, Protein #28-His, Protein #29-His, and Protein #30-His were prepared according to Example 1. Protein #28-His was additionally PEGylated using a 40 kDa PEG moiety (NOF Sunbright GL2-400MA) by maleimid coupling of the PEG-moiety onto the free C-terminal cysteine of Protein #28-His, followed by purification to homogeneity using standard purification methods, procedures well known to the person skilled in the art. Pharmacokinetic analyses in mouse or cynomolgus monkey were performed as described in Examples 8 and 9.

The subject of a further series is HER3. Put plainly: Phosphorylation state ELISA, BT474 cells. In kind it is cell-based, human. The following applies: 100 nM, 18 hours.
Series [2] can be described thus: Thermal stability by circular dichroism. The note with it: 0.4 μM in PBS. In kind it is physicochemical. The procedure:
Protein #21 was expressed and purified as described in Example 1. Thermal stability was evaluated using circular dichroism using a Jasco J-815 CD spectrometer in a nitrogen atmosphere (3 L/min). Protein #21 at 0.4 μM in PBS in 117.100F-QS cuvettes (Hellma, d=1 cm) with in-solution temperature control sensors were measured, heating from 20° C. to 95° C. (below 45° C.: +3° C./min; above 45° C.: +1° C./min recording the signal at 222 nm, a 1 min delay at 95° C. and a subsequent cooling phase (inverted program compared to heating phase). The CD signal was normalized to mean residual ellipticity (MRE) with the unit deg cm2 dmol-1. Additionally, the far-UV CD spectrum was recorded.

In a further series the test system is AKT. Kind of series: Phospho-site specific ELISA, BT474 cells. The note with it: 100 nM, 18 hours. The class given is cell-based, human.
For the next series, the target named is HER2 (Homo sapiens, UniProt P04626). Kind of series: Phospho-proteome mass spectrometry of BT474 cells. The class given is cell-based. Also noted: host or cells: BT474. The note with it: 100 nM, 18 hours. An excerpt: Protein #21 was expressed and purified as described in Example 1. […] Cells were then subjected to a phospho-proteome mass-spectrometry analysis as described by Britton, D., et al. (Britton, D., Zen, Y., Quaglia, A., Selzer, S., Mitra, VI., Lössner, C., Jung, S., Bohm, G., Schmid, P., Prefot, P., Hoehle, C., Koncarevic, S., Gee, J., Nicholson, R., Ward, M., Castellano, L., Stebbing, J., Zucht, H. D., Sarker, D., Heaton, N., and Pike, I., 2014. PLOS One 9 (3), e90948).

The subject of series [3] is SKBR-3, SKOV-3, NCI-N87, ZR-75-30, HCC1419, or MDA-MB175. Put plainly: Induction of apoptosis in further cell lines. The class given is cell-based.
For series [4], the target named is human HER2 and human serum albumin (Homo sapiens, UniProt P02768+P04626). Kind of series: Surface plasmon resonance simultaneous binding.

B1: Protein #21: SEQ ID NO: 21; HER2 binding domains (SEQ ID NOs: 16, 17) flanked by two serum albumin binding domains (SEQ ID NO: 14), SEQ ID NO: 9 linkers (protein)
chain: GSDLGKKLLEAARAGQDDEVRELLKAGADVNAKDYFSHTPLHLAARNGHLKIVEVLLKAGADVNAKDFAGKTPLHLAANEGHLEIVEVLLKAGADVNAQDIFGKTPADIAADAGHEDIAEVLQKAAGSPTPTPTTPTPTPTTPTPTPTGSDLGIKLLFAAAKGQDDEVRELLKAGADVNAKDFQGVTPLHIAAQSGHLEIVEVLLKAGADVNAKDVTGDTPLHLAAQHGHLEIVEVLLKAGADVNAQDERGWTPADLAADWGHEDIAEVLQKAAGSPTPTPTTPTPTPTTPTPTPTGSDLGKKLLEAARAGQDDEVRELLKAGADVNAKDEYGLTPLYLATAHGHLEIVEVLLKAGADVNAVDAIGFTPLHLAAFIGHLEIAEVLLKAGADVNAQDKFGKTPADIAAGAGNEDIAEVLQKAAGSPTPTPTTPTPTPTTPTPTPTGSDLGKKLLEAARAGQDDEVRELLKAGADVNAKDYFSHTPLHLAARNGHLKIVEVLLKAGADVNAKDFAGKTPLHLAANEGHLEIVEVLLKAGADVNAQDIFGKTPADIAADAGHEDIAEVLQKAA
modifications: Protein comprising four designed ankyrin repeat domains
As for B1, the “dose dependence of the terminal half-life” value in series [1] (1 mg/kg, 10 mg/kg and 100 mg/kg) is “dose dependent increase”. The “pharmacokinetic properties compared to PEGylated Protein #28” value in series [1] (5 mg/kg doses) is reported as “markedly improved pharmacokinetic properties”. Also, the terminal half-life in series [1] (100 mg/kg) is 109.5 h and 130.6 h. Also, the “HER3 Pan-Phospho-Tyrosine” value in the series on HER3 is reported as 0.45 fold change to PBS. Further, in series [2], the “temperature above which loss of signal at 222 nm is detected” value was “above 78 °C”. For the same molecule, the “AKT S473 phosphorylation” value in the series on AKT was 0.16 fold change to PBS. For the same molecule, in the series with HER2, the “HER2 S1073/S1078/S1083 phosphorylation” value is on record as 0.35 fold change to PBS, the “HER2 S1174 phosphorylation” value was 0.59 fold change to PBS, the “HER2 T772 phosphorylation” value was 10.27 fold change to PBS and the “HER2 T1172/S1174 phosphorylation” value is listed as 0.44 fold change to PBS. Further, in the series with HER2, the “HER2 T1240 phosphorylation” value is recorded as 0.09 fold change to PBS and the “HER2 Y1139/S1151 phosphorylation” value is reported as 0.88 fold change to PBS. Also, in series [3], the “potency in inducing apoptosis in further cell lines” value is given as “high potency in inducing apoptosis”. Moreover, in series [4], the “simultaneous binding of human HER2 and human serum albumin” value is “can bind human HER2 and human serum albumin simultaneously”.
